Assay results taken from patent publication US20060009452A1, “Therapeutic targeting of PARC/CCL18 and its signaling in pulmonary fibrosis” (priority 2004, published 2006).

Experiments:
Sp1-sensitive promoter = experiment: Luciferase assay of Sp1-sensitive promoter (pGAGC6) in transfected lung fibroblasts; assay type: cell-based, human; details: pGAGC6-transfected primary lung fibroblasts
Procedure: FIG. 16. Stimulation with PARC increases Sp1 promoter-stimulating activity in cultured primary lung fibroblasts. Luciferase activity was measured in a chemiluminescence-based assay in cell lysates from the following fibroblast cultures: mock-transfected non-stimulated (Medium), pGAM-transfected non-stimulated (pGAM Ctrl), pGAM-transfected PARC-stimulated (PGAM PARC), pGAGC6-transfected non-stimulated (pGAGC6 Ctrl), and pGAGC6-transfected PARC-stimulated (pGAGC6 PARC).

lung fibroblasts = experiment: Collagen production, metabolic labeling with 14C-proline, PAGE and autoradiography; assay type: cell-based, human
Procedure: Collagen Production Assays. Production of collagen was assessed using metabolic labeling with ^14C-proline and Western blotting with anti-collagen type I antibody. For metabolic labeling of collagen, fibroblasts were plated at 2×10^5 cells/well in 6-well plates (Costar, Cambridge, Mass.), in duplicates, incubated overnight in 3 ml/well of high serum medium, and then for 24 h in low-serum medium. After that, the culture medium was replaced with 1 ml/well of fresh low serum medium with or without added test substances and containing ^14C-proline at 1 μCi/ml (Amersham Pharmacia Biotech). After incubation for the desired periods of time, the cell culture supernatants were collected, rapidly frozen in liquid nitrogen and freeze-dried at −70° C. The pellets were dissolved in 100 μl of reducing Laemmli buffer per 1 ml of the cell culture supernatant, and the samples were electrophoretically separated in 7.5% acrylamide gels. Alternatively, samples were concentrated 10-fold by filter centrifugation on 30K Ultrafree-MC filters (Millipore, Bedford, Mass.). Fluorographic images were developed using EN[3H]ANCE autoradiography enhancer (NEN, Boston, Mass.). Gel images were acquired using Storm densitometer (Molecular Dynamics, Sunnyvale, Calif.), and the densities of the bands were analyzed with ImageQuant software (Molecular Dynamics). Dependence of collagen production by fibroblast cultures on the dose of PARC and duration of stimulation were evaluated using one-way ANOVA with post hoc testing.
The identity of collagen bands was confirmed by sensitivity to pepsin and collagenase (both from Sigma) digestion. For pepsin digestion, 2 μl of 1 Macetic acid were added to 40 μl of concentrated fibroblast culture supernatant, followed by 1 μl of pepsin stock, to achieve final concentration of pepsin as indicated in the text. After 15 min of digestion at room temperature, reaction was stopped with 4 μl of 1 M Tris base and 40 μl of reducing Laemmli buffer. For collagenase digestion, 1 μl of 4 U/ml bacterial collagenase and 1 μl of protease inhibitor cocktail (Sigma) were added to 40 μl of sample and digestion performed at room temperature for 30 min. The bacterial collagenase was highly purified and had minimal clostripain and neutral protease activity, as tested by the manufacturer, according to the product information sheet.
To test effects of rhPARC on collagen protein production by lung and dermal fibroblast cell lines, fibroblast cultures were incubated for 48 h with or without 30 ng/ml and 300 ng/ml rhPARC in the low-serum cell culture medium containing 14Cproline for metabolic labeling of collagen. Fibroblast culture supernatants contained two 14C-proline containing bands in gel electrophoresis under reducing conditions (FIGS. 13A and 13B). Digestion with chromatographically pure bacterial collagenase in the presence of protease inhibitors eliminated the bands completely (FIG. 13A). To confirm the identity of these bands, we conducted Western blotting experiments in reducing conditions of fibroblast culture supernatants using an anti-collagen type I antibody, that recognizes α1(I) collagen but not other collagen chains. Digestion with pepsin caused expected decrease in the apparent molecular weight of the immunoreactive collagen from ˜175 kD to ˜125 kD (FIG. 13C).

B1: rhPARC: Recombinant human pulmonary and activation-regulated chemokine (CC chemokine CCL18), purchased from R&D Systems and Cell Sciences (protein)
chain: AQVGTNKELCCLVYTSWQIPQKFIVDYSETSPQCPKPGVILLTKRGRQICADPNKKWVQKYISDLKLNA
Sp1-sensitive promoter
  Sp1 promoter-stimulating activity (luciferase): leads to activation of the Sp1-sensitive promoter
Lung fibroblasts; 48 h, 300 ng/ml rhPARC, responding lung and dermal lines
  average increase in the density of collagen bands: 3.4±0.9 fold
Lung fibroblasts; 48 h, five out of seven tested lung and dermal fibroblast lines
  increase of fibroblast production of collagen over control: more than 3 fold
Lung fibroblasts; LF1 cells, 300 ng/ml rhPARC, 48 h
  combined density of procollagen bands, fold higher than non-stimulated control: 3.4 fold
Lung fibroblasts; LF2 cells, 30 ng/ml rhPARC, 48 h
  combined density of procollagen bands, fold higher than non-stimulated control: 2.7 fold
Lung fibroblasts; LF2 cells, 300 ng/ml rhPARC, 48 h
  combined density of procollagen bands, fold higher than non-stimulated control: 4.4 fold
Lung fibroblasts; up to 72 h, rhPARC up to 1,000 ng/ml
  response of collagen production in one lung and one dermal fibroblast line: non-responsive
